Holding throughout (assay): ELISA
Holding throughout (details): both partners purified

In assay [1] the target is T1, full-length recombinant H1 HA protein (A/California/07/09, H1N1) (Influenza A virus A/California/07/2009 …, UniProt C3W5X2).
T1 construct: source: bought: Protein Sciences Corporation (purified recombinant full-length HA)

Assay [2] concerns the target recombinant HA1 head protein (rHA1) of H1 HA (A/California/07/09, H1N1) (Influenza A virus A/California/07/2009 …, UniProt C3W5X2).
For assay [3], the target named is T2, H1 rHA ectodomain (trimeric HA ectodomain, A/California/07/09, H1N1) (Influenza A virus A/California/07/2009 …, UniProt C3W5X2).
T2 construct: source: bought: International Reagent Resource and Sino Biological (HA ectodomains)

These results are taken from paper PMC10491405 (PLOS Pathogens, 2023).

B1: human monoclonal stem antibody FI6v3 (antibody, V domains shown)
VH: QVQLVESGGGVVQPGRSLRLSCAASGFTFSTYAMHWVRQAPGKGLEWVAVISYDANYKYYADSVKGRFTISRDNSKNTLYLQMNSLRAEDTAVYYCAKDSQLRSLLYFEWLSQGYFDYWGQGTLVTVSS
VL: not shown
notes: also called mAb FI6v3; source: VRC, NIH
As to B1, in assay [1], the binding result was “binds”.

B2: mouse monoclonal stem antibody C179 (antibody, V domains shown)
VH: EVKLVESGGGLVQPGGSLRLSCGTSGFTLTDDYMTWVRQPPGKALEWLGFIRDRANGYTTEYSASVKGRFTISRDNSQSIVYLQMNTLRVEDSATYYCARPKGYFPYAMDYWGQGTSVIVSS
VL: DIQMTQSPASQSASLGESVTITCLASQTIGTWLAWYQQKPGKSPQLLIYAATSLADGVPSRFSGSGSGTKFSFKISSLQAEDFVSYYCQQLYSTPWTFGGGTRLEIK
notes: source: purified from hybridoma from mouse ascitic fluid
In the case of B2, the figures for the binding result in assay [1], in assay [2] and in assay [3] were “binds”, “no binding (tested: 0.5 μg/ml)” and “binds”, respectively.
